{"source": "patent US11994512B2", "about": "“Single-cell genomic methods to generate ex vivo cell systems that recapitulate in vivo biology with improved fidelity” (Massachusetts Institute of Technology, priority 2018, dated 2024)", "test_system": "intracellular proteome of ENR+CD and ENR organoids", "assay": "LC-MS/MS TMT proteomics of ENR+CD versus ENR organoids", "type": "cell-based, C57BL/6 mice", "conditions": "for Average logFC / M1-1 Log2 Median Normalized / M1-2 Log2 Median Normalized / M2-1 Log2 Median Normalized / M2-2 Log2 Median Normalized: protein abundance, ENR+CD versus ENR organoids; for Average logFC: aggregate of the four sample pairs; for M1-1 Log2 Median Normalized: replicate M1-1; for M1-1 Log2 Median Normalized / M1-2 Log2 Median Normalized / M2-1 Log2 Median Normalized / M2-2 Log2 Median Normalized: log2 ratio; for M1-2 Log2 Median Normalized: replicate M1-2; for M2-1 Log2 Median Normalized: replicate M2-1; for M2-2 Log2 Median Normalized: replicate M2-2; for change: up = enriched in ENR+CD, down = enriched in ENR, FDR<0.05 and log fold change cut-off", "data": [{"molecule": "P52800 (protein, UniProt P52800 1-336, looked up, full-length) MAMARSRRDSVWKYCWGLLMVLCRTAISRSIVLEPIYWNSSNSKFLPGQGLVLYPQIGDKLDIICPKVDSKTVGQYEYYKVYMVDKDQADRCTIKKENTPLLNCARPDQDVKFTIKFQEFSPNLWGLEFQKNKDYYIISTSNGSLEGLDNQEGGVCQTRAMKILMKVGQDASSAGSARNHGPTRRPELEAGTNGRSSTTSPFVKPNPGSSTDGNSAGHSGNNLLGSEVALFAGIASGCIIFIVIIITLVVLLLKYRRRHRKHSPQHTTTLSLSTLATPKRGGNNNGSEPSDVIIPLRTADSVFCPHYEKVSGDYGHPVYIVQEMPPQSPANIYYKV", "values": [{"measurement": "Average logFC", "result": "−1.24"}, {"measurement": "M1-1 Log2 Median Normalized", "result": "−0.883"}, {"measurement": "M1-2 Log2 Median Normalized", "result": "−1.258"}, {"measurement": "M2-1 Log2 Median Normalized", "result": "−1.7545"}, {"measurement": "M2-2 Log2 Median Normalized", "result": "−1.065"}, {"measurement": "change", "result": "down"}]}, {"molecule": "P51432 (protein, UniProt P51432 1-1234, looked up, full-length) MAGARPGVHALQLEPPTVVETLRRGSKFIKWDEEASSRNLVTLRVDPNGFFLYWTGPNMEVDTLDISSIRDTRTGRYARLPKDPKIREVLGFGGPDTRLEEKLMTVVAGPDPVNTTFLNFMAVQDDTVKVWSEELFKLAMNILAQNASRNTFLRKAYTKLKLQVNQDGRIPVKNILKMFSADKKRVETALESCGLNFNRSESIRPDEFPLEIFERFLNKLCLRPDIDKILLEIGAKGKPYLTLEQLMDFINQKQRDPRLNEVLYPPLRSSQARLLIEKYETNKQFLERDQMSMEGFSRYLGGEENGILPLEALDLSMDMTQPLSAYFINSSHNTYLTAGQLAGPSSVEMYRQALLWGCRCVELDVWKGRPPEEEPFITHGFTMTTEVPLRDVLEAIAEAAFKTSPYPVILSFENHVDSAKQQAKMAEYCRSIFGDALLIDPLDKYPLSAGIPLPSPQDLMGRILVKNKKRHRPSTGVPDSSVRKRPLEQSNSALSESSAATEPSSPQLGSPSSDSCPGLSNGEEVGLEKTSLEPQKSLGEESLSREPNVPMPDRDREDEEEDEEEEETTDPKKPTTDEGTASSEVNATEEMSTLVNYVEPVKFKSFEAARKRNKCFEMSSFVETKAMEQLTKSPMEFVEYNKQQLSRIYPKGTRVDSSNYMPQLFWNVGCQLVALNFQTLDLPMQLNAGVFEYNGRSGYLLKPEFMRRPDKSFDPFTEVIVDGIVANALRVKVISGQFLSDKKVGIYVEVDMFGLPVDTRRKYRTRTSQGNSFNPVWDEEPFDFPKVVLPTLASLRIAAFEEGGKFVGHRILPVSAIRSGYHYVCLRNEANQPLCLPALLIYTEASDYIPDDHQDYAEALINPIKHVSLMDQRAKQLAALIGESEAQASTETYQETPCQQPGSQLPSNPTPNPLDASPRWPPGPTTSSTSSSLSSPGQRDDLIASILSEVTPTPLEELRSHKAMVKLRSRQDRDLRELHKKHQRKAVALTRRLLDGLAQARAEGKCRPSPSALGKATNSEDVKEEEEAKQYREFQNRQVQSLLELREAQADVETKRKLEHLRQAHQRLKEVVLDTHTTQFKRLKELNEREKKELQKILDRKRNNSISEAKTREKHKKEVELTEINRRHITESVNSIRRLEEAQKQRHERLVAGQQQVLQQLEEEEPKLLAQLTQECQEQRERLPQEIRRCLLGETAEGLGDGPLVACASNGHAPGSGGHLSSADSESQEENTQL", "values": [{"measurement": "Average logFC", "result": "−1.187"}, {"measurement": "M1-1 Log2 Median Normalized", "result": "−1.261"}, {"measurement": "M1-2 Log2 Median Normalized", "result": "−1.255"}, {"measurement": "M2-1 Log2 Median Normalized", "result": "−1.1345"}, {"measurement": "M2-2 Log2 Median Normalized", "result": "−1.096"}, {"measurement": "change", "result": "down"}]}, {"molecule": "P52792 (protein, UniProt P52792 1-465, looked up, full-length) MLDDRARMEATKKEKVEQILAEFQLQEEDLKKVMSRMQKEMDRGLKLETHQEASVKMLPTYVRSTPEGSEVGDFLSLDLGGTNFRVMLVKVGEGEAGQWSVKTKHQMYSIPEDAMTGTAEMLFDYISECISDFLDKHQMKHKKLPLGFTFSFPVRHEDIDKGILLNWTKGFKASGAEGNNIVGLLRDAIKRRGDFEMDVVAMVNDTVATMISCYYEDRQCEVGMIVGTGCNACYMEEMQNVELVEGDEGRMCVNTEWGAFGNSGELDEFLLEYDRMVDESSVNPGQQLYEKIIGGKYMGELVRLVLLKLVEENLLFHGEASEQLRTRGAFETRFVSQVESDSGDRRQILNILSTLGLRPSVADCDIVRRACESVSTRAAHMCSAGLAGVINRMRESRSEDVMRITVGVDGSVYKLHPSFKERFHASVRRLTPNCEITFIESEEGSGRGAALVSAVACKKACMLGQ", "values": [{"measurement": "Average logFC", "result": 1.166}, {"measurement": "M1-1 Log2 Median Normalized", "result": 1.847}, {"measurement": "M1-2 Log2 Median Normalized", "result": 0.711}, {"measurement": "M2-1 Log2 Median Normalized", "result": 1.3025}, {"measurement": "M2-2 Log2 Median Normalized", "result": 0.805}, {"measurement": "change", "result": "up"}]}]}
